System: CasDinG WT (Pseudomonas aeruginosa strain 83 (extrachromosomal plasmid))
Assay: fluorescence anisotropy
Settings: 100 mM Tris pH 8.0, 1 mM TCEP, 5 mM MgCl2, +/- 1 mM AMP-PNP, 10 nM FAM-ssDNA, CasDinG 0-2.5 uM, room temperature

Sequence: TCGTCACCAGTACAAACTACAACGCCTGTAGCATTCCACA [40 nt ssDNA (oligo 7)]
- Kd: 26 nM
- Kd (no nucleotide, 5 mM Mg2+): 25 nM

Source: article PMC10450177
